One series concerns the target T1, GB1–ks-vFLIP (Human herpesvirus 8 type P, UniProt F5HEZ4).
T1 construct: ks-vFLIP (residues 1 to 188) was PCR cloned into the EcoRI and XhoI sites of GB1-pBR22b; 6His (C); made in house; host or cells: E. coli BL21(DE3)
The series can be described thus: biochemical. The format is binding, Kaposi's sarcoma-associated herpesvirus. How it is done:
We next sought to assess the affinity of spIKKγ for vFLIP using isothermal calorimetry (ITC).
Isothermal calorimetry (ITC) experiments were performed using a Microcal VP-ITC micocalorimeter (MicroCal). For all binding reactions, syringe concentrations varied between ∼85 and 100 μM for IKKγ(150–272) and cell concentrations between ∼8 and 10 μM for GB1-vFLIP. Titrations consisted of an initial 2-μl injection, followed by 20 10-μl injections with stirring at 300 rpm. In competition assays, GB1–ks-vFLIP was first incubated with 20 μM spIKKγ and DMSO to 4% prior to loading into the cell and titration with IKKγ(150–272). All ITC binding experiments were performed in deionized water at 25°C owing to the buffer constraints of spIKKγ, GB1–ks-vFLIP, and IKKγ(150–272), where GB1–ks-vFLIP and IKKγ(150–272) were buffer matched by overnight dialysis, followed by the addition of 4% DMSO to each. […] Following collection, all data were analyzed using ORIGIN 70 software and fitted to a one-site binding model with each experiment performed at least in triplicate.

The next series relates to ks-vFLIP. The following applies: IKKγ(150–272) at 30 μM; 30 μM ks-vFLIP unless otherwise stated, SYPRO orange; repeated at least 3 times.
The subject of the next series is IKKγ. The series can be described thus: Thermofluor assay, thermal denaturation of IKKγ alone. The format is physicochemical. The following applies: various concentrations, SYPRO orange. The source says: FIG 2 vFLIP-IKKγ interaction and peptide thermofluor analysis. (A) (Left) Cartoon depiction of the ks-vFLIP–IKKγ heterotetramic complex (PDB code 3CL3). The IKKγ and ks-vFLIP monomers are shown in gray and wheat, respectively. (Right) The ks-vFLIP-IKKγ dimer interface highlighting cleft 1 (white) and cleft 2 (cyan). Residues essential for the formation of the cleft 1 interactions (H235, F238, D242, and K246) are colored magenta, and those that interact with cleft 2 (Q236 and E240) are colored blue. (B) IKKγ ks-vFLIP minimal interacting motif (residues 230 to 248) together with those forming the 30- and 21-mer peptides (pink and violet, respectively) used in the thermofluor studies. (C) Thermal denaturation profiles for ks-vFLIP (left) and IKKγ (right) at various concentrations. […] (D) Thermal denaturation of ks-vFLIP in the presence of various concentrations of IKKγ (left) and the 21-mer (pink) and 30-mer (violet) (right) peptides.
Each experiment was repeated at least 3 times. All peptides were purchased from Eurogentec.

T1 sequence (F5HEZ4 whole entry, the tested form may be a part): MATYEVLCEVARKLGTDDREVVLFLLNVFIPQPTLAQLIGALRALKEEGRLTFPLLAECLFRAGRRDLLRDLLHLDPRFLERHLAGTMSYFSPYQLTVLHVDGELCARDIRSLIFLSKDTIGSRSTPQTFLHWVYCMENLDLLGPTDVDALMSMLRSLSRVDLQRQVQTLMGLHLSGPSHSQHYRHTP

B1: IKKγ(150–272): IKKγ fragment encompassing residues 150 to 272 (protein)
chain: LGELQESQSRLEAATKECQALEGRARAASEQARQLESEREALQQQHSVQVDQLRMQGQSVEAALRMERQAASEEKRKLAQLQVAYHQLFQEYDNHIKSSVVGSERKRGMQLEDLKQQLQQAEE
On to B1, for which, in the series with GB1–ks-vFLIP (GB1–ks-vFLIP preincubated with 20 μM spIKKγ, 4% DMSO, deionized water, 25°C, at least triplicate), the “apparent dissociation constant (Kd) of the vFLIP-IKKγ interaction in the presence of peptide” value amounted to 30 µM. Also, the “binding affinity for ks-vFLIP, spIKKγ compared with IKKγ(150–272)” value in the series with GB1–ks-vFLIP (ITC) is recorded as “nearly equivalent binding affinities”. In the series with ks-vFLIP, the “shift in melting temperature of ks-vFLIP” value was approximately 8 °C. Also, the “thermal denaturation response of IKKγ” value in the series on IKKγ is recorded as “lack of a significant response”.

(Values after paper PMC5686756, “IKKγ-Mimetic Peptides Block the Resistance to Apoptosis Associated with Kaposi's Sarcoma-Associated Herpesvirus Infection” (Journal of Virology, 2017).)
